Measurements published in patent publication US20090291088A1 (Biogen, published 2009).

Columns and labels:
human INSR(28-956)-His10 [1] = biological target: T1, human INSR(28-956)-His10 (human, UniProt P06213 28-956); assay: ELISA, plate coated with rh-INSR
T1 construct: range 28-956; Bought (R&D Systems 1544-IR); also called rh-INSR; soluble insulin receptor
Description: (§1) ELISA assays were performed to determine specific binding of the Fab fragment antibodies to soluble IGF-1R over the insulin receptor. […] Color development was stopped by addition of 4NH₂SO₄ and optical density is measured at 450 nm using a Molecular Devices plate reader and binding curves are generated.

[2] = biological target: T2, human IGF-1R expressed on cells (human, UniProt P08069 31-1367); assay: flow cytometry, MCF-7 cells
T2 construct: On MCF-7 tumor cells or on 3T3/CHO transfectants; precursor is processed into alpha and beta subunits; Signal peptide 1-30 left out as stated; also called wild type IGF-1R; IGF-1R 3T3
Description: The ability of Fabs to bind to the wild type IGF-1R was determined by flowcytometry using MCF-7 tumor cell line.
MCF-7 cells (Human Breast Adenocarcinoma from NCI) were split 24 hours prior to the setup of the assay to obtain 70% confluent monolayer. Routinely, MCF-7 cell line was maintained within 20 passages. Cells were lifted with cell dissociation buffer (Gibco catalog #13151-014), counted, washed and adjusted to 1×10⁶ cells/ml and one ml of cells were then added to each tube (12×75 mm tube Falcon catalog# 352054). Cells were pelleted and supernatant removed by centrifugation at 1200 rpm for 5 min and 100 μl of diluted antibodies were then added to the cell pellet. Purified Fabs were tested at a starting concentration of either 210 or 60 μg/ml with 1:3 dilutions in FACS buffer, down to 0.001 μg/ml. FACS buffer used throughout the assay was PBS (without Ca++/Mg++) containing 1% BSA (Sigma catalog# A-7906; Sigma-Aldrich Corp. (St. Louis, Mo., USA)) and 0.1% Sodium Azide (Sigma catalog #S2002). […] Samples were allowed to incubate on ice for 1 hour and 15 minutes then were washed with 2 ml FACS buffer and centrifuged at 1200 rpm for 5 minutes at 4° C. The supernatant was aspirated and 100 μl of the secondary detection antibody was added to each corresponding tube in FACS buffer. Samples were then incubated for 30 minutes on ice, in the dark. Cells were washed as described above, then, re-suspended in […] FACS buffer per tube/sample.
Cells were stained for live cell determination with Propidium Iodide staining solution (PI for dead cell exclusion; BD Pharmingen catalog# 51-66211E or 556463; use at 1:500 final in FACS buffer). Samples were run on the FACSCalibur instrument (Becton Dickinson) with 10,000 live events collected per sample.

[3] = biological target: T3, human IGF-1R(1-902)-His10 (human, UniProt P08069 31-932); assay: ELISA, plate coated with rh-IGF-1R, bound Fab detected with anti-human kappa-HRP
T3 construct: Cy5-labelled in tr-FRET; also called hIGF-1R-His10; IGF-1R-His
Description: as §1

human INSR(28-956)-His10 [4] = biological target: T1, human INSR(28-956)-His10; assay: ELISA on coated rh-INSR
Description: as §1

human IGF-1R(1-903)-Fc [5] = biological target: T4, human IGF-1R(1-903)-Fc (human, UniProt P08069 31-933); assay: ELISA, plate coated with soluble IGF-1 receptor Fc fusion protein, detection with anti-human kappa-HRP
T4 construct: Made by Biogen Idec; Multimerises through IGF-1R and Fc; also called hIGF-1R-Fc; IGF-1R-Fc; not shown: C-terminal human IgG1-Fc tag
Description: The plate was washed with phosphate-buffered saline (PBS, Irvine Scientific, Cat#9240), pH 7.4 plus 0.025% Tween 20 in the Skan Washer 300 (Skatron Instruments), blocked with buffer containing 1% nonfat milk, 0.05% Tween 20 in PBS, pH 7.4, and then incubated at room temperature for 1 hour. After incubation plate was washed with PBS plus 0.025% Tween 20 in the Skan Washer 300. […] Following a one hour incubation at room temperature, plate was washed with PBS plus 0.025% Tween 20 in the Skan Washer 300. […] Plate incubated for 1 hour at room temperature was washed with PBS plus 0.025% Tween 20 in the Skan Washer 300. […] The absorbance was measured at 450 nm, background 540 nm for TMB using the Molecular Devices plate reader. Data was analyzed using the SOFTMAX PRO software package version 4.3 LS (Molecular Devices Corp.).

[6] = biological target: T2, human IGF-1R expressed on cells; assay: cell-based or functional assay
[7] = biological target: T5, Rhesus IGF-1R expressed on CHO cells (rhesus monkey, UniProt I2CWY3 31-1367); assay: flow cytometry and confocal microscopy, CHO transfectants
T5 construct: whole, on cells; also called Rhesus IGF-1R/CHO
T5 sequence (I2CWY3 entry or part of it): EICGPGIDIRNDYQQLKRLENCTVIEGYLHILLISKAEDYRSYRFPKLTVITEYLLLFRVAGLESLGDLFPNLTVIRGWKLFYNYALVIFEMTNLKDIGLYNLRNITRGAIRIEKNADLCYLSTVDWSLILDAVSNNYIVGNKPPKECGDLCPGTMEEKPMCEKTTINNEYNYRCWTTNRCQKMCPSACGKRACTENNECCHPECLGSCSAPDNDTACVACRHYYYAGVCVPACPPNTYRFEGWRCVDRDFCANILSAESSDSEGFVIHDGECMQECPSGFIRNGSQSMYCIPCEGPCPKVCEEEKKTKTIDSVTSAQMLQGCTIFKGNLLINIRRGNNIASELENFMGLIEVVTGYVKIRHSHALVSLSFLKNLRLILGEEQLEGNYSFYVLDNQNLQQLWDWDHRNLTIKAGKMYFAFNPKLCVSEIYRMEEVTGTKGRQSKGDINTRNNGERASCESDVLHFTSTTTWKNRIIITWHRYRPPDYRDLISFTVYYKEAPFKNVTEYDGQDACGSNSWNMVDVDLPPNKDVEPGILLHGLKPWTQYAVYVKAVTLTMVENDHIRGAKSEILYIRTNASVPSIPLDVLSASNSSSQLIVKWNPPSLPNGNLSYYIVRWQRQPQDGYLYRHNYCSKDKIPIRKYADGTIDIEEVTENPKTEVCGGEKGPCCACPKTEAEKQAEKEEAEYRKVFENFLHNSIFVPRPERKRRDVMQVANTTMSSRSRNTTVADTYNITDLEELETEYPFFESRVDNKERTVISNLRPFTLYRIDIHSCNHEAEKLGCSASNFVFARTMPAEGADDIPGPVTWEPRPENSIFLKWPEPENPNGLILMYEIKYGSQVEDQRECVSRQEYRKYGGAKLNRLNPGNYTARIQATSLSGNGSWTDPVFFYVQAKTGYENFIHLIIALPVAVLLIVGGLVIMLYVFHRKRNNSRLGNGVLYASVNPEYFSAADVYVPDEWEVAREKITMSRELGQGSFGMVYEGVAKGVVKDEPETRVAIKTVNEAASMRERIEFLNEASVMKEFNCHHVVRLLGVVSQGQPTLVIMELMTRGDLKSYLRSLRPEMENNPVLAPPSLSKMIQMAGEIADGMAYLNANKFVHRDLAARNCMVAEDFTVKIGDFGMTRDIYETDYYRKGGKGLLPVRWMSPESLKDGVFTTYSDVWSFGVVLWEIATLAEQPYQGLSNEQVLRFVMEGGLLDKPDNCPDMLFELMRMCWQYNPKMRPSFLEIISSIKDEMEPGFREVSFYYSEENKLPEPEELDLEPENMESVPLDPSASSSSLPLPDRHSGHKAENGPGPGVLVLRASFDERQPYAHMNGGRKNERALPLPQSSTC

[8] = biological target: T6, murine IGF-1R expressed on cells (mouse, UniProt Q60751 31-1373); assay: binding to CHO transfectants
T6 construct: whole, on cells; also called mouse IGF-1R
T6 sequence (Q60751 31-1373): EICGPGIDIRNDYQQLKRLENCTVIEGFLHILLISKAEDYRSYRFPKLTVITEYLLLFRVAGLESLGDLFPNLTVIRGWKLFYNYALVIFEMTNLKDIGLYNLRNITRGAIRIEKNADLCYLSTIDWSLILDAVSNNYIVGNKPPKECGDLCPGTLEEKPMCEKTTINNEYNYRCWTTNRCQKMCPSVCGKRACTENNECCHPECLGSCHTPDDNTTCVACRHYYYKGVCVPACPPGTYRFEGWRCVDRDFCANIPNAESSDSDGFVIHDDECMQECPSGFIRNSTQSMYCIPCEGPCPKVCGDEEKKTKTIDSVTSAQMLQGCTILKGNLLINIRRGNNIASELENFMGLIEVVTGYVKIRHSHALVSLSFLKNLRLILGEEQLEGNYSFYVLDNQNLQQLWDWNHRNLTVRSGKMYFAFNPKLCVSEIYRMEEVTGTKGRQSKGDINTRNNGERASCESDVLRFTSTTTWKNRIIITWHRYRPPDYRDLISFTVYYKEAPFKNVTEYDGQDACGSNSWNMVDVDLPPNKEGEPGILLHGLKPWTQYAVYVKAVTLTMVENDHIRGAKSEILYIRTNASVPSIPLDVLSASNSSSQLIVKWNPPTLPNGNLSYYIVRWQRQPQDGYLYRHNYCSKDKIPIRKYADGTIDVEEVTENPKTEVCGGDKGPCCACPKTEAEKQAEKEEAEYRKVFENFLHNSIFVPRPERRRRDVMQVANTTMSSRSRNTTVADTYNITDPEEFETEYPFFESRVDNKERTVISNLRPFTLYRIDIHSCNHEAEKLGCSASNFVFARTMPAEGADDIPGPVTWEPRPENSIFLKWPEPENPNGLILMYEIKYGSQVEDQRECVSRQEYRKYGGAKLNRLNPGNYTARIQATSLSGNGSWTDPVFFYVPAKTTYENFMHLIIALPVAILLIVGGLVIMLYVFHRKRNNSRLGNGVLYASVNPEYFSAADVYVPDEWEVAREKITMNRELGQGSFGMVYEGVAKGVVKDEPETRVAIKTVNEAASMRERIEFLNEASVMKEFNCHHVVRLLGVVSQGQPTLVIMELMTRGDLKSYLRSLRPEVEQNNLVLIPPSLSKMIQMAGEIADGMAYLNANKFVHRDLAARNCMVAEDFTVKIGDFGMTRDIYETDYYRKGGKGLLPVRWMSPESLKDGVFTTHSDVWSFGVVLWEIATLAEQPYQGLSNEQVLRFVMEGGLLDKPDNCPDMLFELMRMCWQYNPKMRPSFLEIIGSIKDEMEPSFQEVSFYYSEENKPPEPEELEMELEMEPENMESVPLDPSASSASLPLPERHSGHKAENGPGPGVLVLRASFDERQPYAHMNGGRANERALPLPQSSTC

[9] = biological target: T3, human IGF-1R(1-902)-His10; assay: SPR, antibody over captured IGF-1R-10His
Description: All surface plasmon resonance (SPR) experiments were performed on a Biacore 3000 set to 25° C. using HBS-EP (Biacore, Cat. No. BR-1001-88) as the running buffer. A biotin-labeled anti-HisTag antibody (biotin-PENTA-His, Qiagen Cat. No. 34440) was immobilized to saturation on a Biacore SA chip (Cat. No. BR-1000-32) surface by injection at 500 nM in HBS-EP buffer. […] Subsequent to IGF-1R injections, flow rates were increased to 20 μL/min. A second, 130 μL injection of anti-IGF-1R antibody or Fab was performed to investigate interactions with the receptor. Each antibody and Fab was serially diluted from 64 nM to 0.5 nM to obtain concentration dependent kinetic binding curves. Each injection series was regenerated using 3×10 μL injections of 10 mM Acetate, pH 4.0, at 20 μL/min. Each curve was double referenced using (1) data obtained from a streptavidin surface devoid of IGF-1R and (2) data from a primary injection of IGF-1R followed by a secondary injection of HBS-EP buffer. The concentration series for each antibody and Fab was fit to the 1:1 binding model provided within the BiaEvaluation software of the manufacturer.
The rates at which the antibodies accumulate on the IGF-1R coated surface when applied at various concentrations as well as the rates at which they dissociated during applications of pure buffer were investigated by fitting the data to a 1:1 binding model. Approximate kinetic rate constants and equilibrium dissociation constant were calculated (Table 14).

human IGF-1R(1-903)-Fc [10] = biological target: T4, human IGF-1R(1-903)-Fc; assay: ELISA on hIGF-1R-Fc, competitor Zenon-labelled αIR3
[11] = biological target: T7, human insulin receptor expressed in mammalian cells (UniProt P06213 28-1382, limits assumed); assay: immunoprecipitation from IR CHO lysate, western blot with mouse anti-human IR
T7 construct: whole, on cells; Cells were solubilised with Triton X-100 before immunoprecipitation; also called INSR; IR
Description: Recombinant IGF-1R and insulin receptor (IR) were independently expressed in mammalian cells (3T3 or CHO). […] Antibody/antigen complexes were released from the beads by acid treatment, applied to Tris-Glycine SDS-PAGE gels and blotted to nitrocellulose membranes. Detection was performed using mouse anti-human IR (FIG. 24A) or mouse anti-human IGF-1R (FIG. 24B) and goat α-mouse IgG.

human IGF-1R(1-903)-Fc [12] = biological target: T4, human IGF-1R(1-903)-Fc; assay: ELISA on hIGF-1R-Fc, competitor biotinylated M14-G11
human IGF-1R(1-903)-Fc [13] = biological target: T4, human IGF-1R(1-903)-Fc; assay: competition ELISA: biotinylated hIGF-1R-Fc on streptavidin plate, 320 nM human IGF-1 His, detection with anti-His-HRP; blocked ligand human IGF-1 His
Description: hIGF-1R-Fc was biotinylated using EZ-Link Sulfo-NHS-LC-Biotin according to the protocol provided by the manufacturer (Pierce Cat. No. 21335). Biotinylated human IGF-1R-Fc at 5 μg/ml was added to the wells of SigmaScreen streptavidin-coated 96-well plates (Sigma, Cat. No. M5432-5EA; Sigma-Aldrich Corp. (St. Louis, Mo., USA)) at 100 μL/well and incubated overnight at 2-8° C. The plates were then washed four times with 200 μL/well PBST. […] The dilutions were added to the plates in duplicate at 100 μL/well and the plates were incubated at RT for 1 hour. The plates were then washed four times with 200 μL/well PBST. An HRP-conjugated anti-Histag antibody (Penta-His HRP Conjugate, QIAGEN, Cat. No. 1014992) was diluted 1:1000 in PBST and added to plates at 100 μL/well, and the plates were incubated at RT for one hour. The plates were then washed four times with 200 μL/well PBST. SureBlue Reserve TMB Microwell Peroxidase Substrate (KPL, Cat. No. 53-00-01) was added to plates at 100 μL/well followed by 1% phosphoric acid at 100 μL/well once the desired reaction was observed. The absorbance of each well was determined at 450 nm, and the results were normalized and plotted against the log of antibody concentration.

human IGF-1R(1-903)-Fc [14] = biological target: T4, human IGF-1R(1-903)-Fc; assay: ELISA on hIGF-1R-Fc, competitor biotinylated M13-C06
human IGF-1R(1-903)-Fc [15] = biological target: T4, human IGF-1R(1-903)-Fc; assay: competition ELISA: biotinylated hIGF-1R-Fc on streptavidin plate, 320 nM human IGF-2 His, detection with anti-His-HRP; blocked ligand human IGF-2 His

Binder	binding result (human INSR(28-956)-His10 [1])	EC50 [2]	EC50 (read off the curve) (human IGF-1R(1-903)-Fc [5])	inhibition of IGF-1 and IGF-2 mediated IGF-1R receptor phosphorylation (EC50) [6]	binding result [7]	binding result [8]	Kd [9]	koff [9]	kon [9]	also measured
M14-B01 Fab (Fab, V domains shown, Human phage Fab, kappa) VH: EVQLLESGGGLVQPGGSLRLSCAASGFTFSNYHMAWVRQAPGKGLEWVSVISPTGGRTTYADSVKGRFTISRDNSKNTLYLQMNSLRAEDTATYYCARAGYSYGYGYFDYWGQGTLVTVSS VL: DIQMTQFPATLSVSPGERATLSCRASQSVMRNLAWYQQKPGQPPRLLIYGASKRATGIPARFSGSGSGTAFTLTISNLEPEDFAVYYCHQRSTWPLGTFGPGTKLEAK	no binding (tested: about 20000 nM)	29.4 nM	–	–	–	–	–	–	–	EC50 (read off the curve) [3]: ~6 nM
M12-G04 Fab (Fab, V domains shown, Human phage Fab, kappa) VH: EVQLLESGGGLVQPGGSLRLSCAASGFTFSKYTMHWVRQAPGKGLEWVSSIVSSGGWTDYADSVKGRFTISRDNSKNTLYLQMNSLRAEDTAVYYCARDRSIAAAGTGWSVSFVDWFDPWGQGTLVTVSS VL: DIQMTQSPLSLSASVGDRVTITCRASQSINGYLNWYQQKPGKAPNLLIYATSSLQSGVPSRFSGSGSGTDFTLTISSLQPEDFATYYCQQSYSTPPYTFGQGTKLEIK	no binding (tested: about 5000 nM)	25 nM	–	–	–	–	–	–	–	–
M12-E01 Fab (Fab, V domains shown) VH: EVQLLESGGGLVQPGGSLRLSCAASGFTFSPYSMLWVRQAPGKGLEWVSSIGSSGGSTRYADSVKGRFTISRDNSKNTLYLQMNSLRAEDTAMYYCARVRGILHYDILIGRNLYYYYMDVWGKGTTVTVSS VL: QYELTQPPSVSEAPRQRVTISCSGSSSNIGNNAINWYQQLPGKPPKLLIYYDDLLPSGVSDRFSGSKSGTSGSLAISGLQSEDEADYYCAAWDDNLNGVIFGGGTKLTVL	–	–	–	–	–	–	–	–	–	binding result (human INSR(28-956)-His10 [4]): no binding (tested: 2 µM-0.2 nM)
M14-G11.G4.P (antibody, human IgG4, V domains shown, Full-length human IgG4.P, kappa; also called M14.G11.P; G4 version of M14-G11) VH: EVQLLESGGGLVQPGGSLRLSCAASGFTFSNYPMYWVRQAPGKGLEWVSRISSSGGRTVYADSVKGRFTISRDNSKNTLYLQMNSLRAEDTAVYYCARDRWSRSAAEYGLGGYWGQGTLVTVSS VL: not shown	–	–	~0.06 nM	< 1 nM	binds	binds	–	–	–	–
M14-G11.G4.P.agly (antibody, human IgG4 S228P, kappa, V domains shown, Full-length human aglycosylated IgG4.P, kappa; Places that say only 'M14-G11 antibody' were assigned to this version; also called M14-G11_Ab; Biotin-G11) VH: EVQLLESGGGLVQPGGSLRLSCAASGFTFSNYPMYWVRQAPGKGLEWVSRISSSGGRTVYADSVKGRFTISRDNSKNTLYLQMNSLRAEDTAVYYCARDRWSRSAAEYGLGGYWGQGTLVTVSS VL: not shown	–	–	~0.06 nM	–	–	–	0.11 nM	0.00011 s⁻¹	1e+06 M⁻¹ s⁻¹	percent competition (relative to self-competition) (human IGF-1R(1-903)-Fc [10]): 50 to 70%; binding result [11]: no binding; percent competition (relative to self-competition) (human IGF-1R(1-903)-Fc [12]): 90 to 100%
M14-C03.G4.P.agly (antibody, human IgG4 S228P, kappa, V domains shown, Full-length human aglycosylated IgG4.P, kappa; Places that say only 'M14-C03 antibody' were assigned to this version; also called M14-C03_Ab) VH: EVQLLESGGGLVQPGGSLRLSCAASGFTFSKYMMSWVRQAPGKGLEWVSYISPSGGLTWYADSVKGRFTISRDNSKNTLYLQMNSLRAEDTAVYYCARDGARGYGMDVWGQGTTVTVSS VL: DIQMTQSPATLSLSPGERATLSCRASQSVSSYLAWYQQKPGQAPRLLIYDASNRATGIPARFSGSGSGTDFTLTISSLEPEDFAVYYCQQRSNWPPEVTFGPGTKVDIKR	–	–	~0.07 nM	< 1 nM	binds	binds	0.36 nM	0.0002 s⁻¹	570000 M⁻¹ s⁻¹	IC50 (read off the curve) (human IGF-1R(1-903)-Fc [13]): ~5 nM; percent competition (relative to self-competition) (human IGF-1R(1-903)-Fc [14]): 90 to 100%; IC50 (read off the curve) (human IGF-1R(1-903)-Fc [15]): ~1 nM
